In general, EC50 refers to the midpoint of the concentration-response curve. Low values mean higher potency in that assay, high ones lower potency in that assay. In general, t½ refers to the time in which the quantity being followed falls by half. In general, Kd refers to a measure of binding affinity in units of concentration. Usually koff stands for the rate constant with which the complex falls apart. The term kon denotes a measure of how fast the partners come together.

Assay [1] concerns the target T1, human CD63 (human, UniProt P08962 2-238).
T1 sequence: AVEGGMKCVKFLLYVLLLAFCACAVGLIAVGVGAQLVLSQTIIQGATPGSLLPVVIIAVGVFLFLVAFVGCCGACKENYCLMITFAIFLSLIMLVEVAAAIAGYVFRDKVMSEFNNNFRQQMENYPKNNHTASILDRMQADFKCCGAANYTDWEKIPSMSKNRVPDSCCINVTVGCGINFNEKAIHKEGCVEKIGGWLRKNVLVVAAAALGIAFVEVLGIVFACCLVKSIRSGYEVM
Put plainly: cell-based or functional assay.

The target in assay [2] is T1, human CD63. Put plainly: ECL cell binding, LNCAP cells. Here is the method:
(§1) LNCAP cells were determined to have a lower human CD63 copy number than U87MG cells. Non-transfected NIH3T3 cells, which have no detectable expression of human CD63 by fluorescence activated cell sorting (FACS), were included as a negative control.
(§2) Briefly, cell lines were rinsed once in PBS buffer without Ca²⁺/Mg²⁺ and incubated for 10 minutes at 37° C. with Enzyme Free Cell Dissociation Solution (Millipore, Cat #S-004-C) to detach the cells. Cells were then washed once with PBS with Ca²⁺/Mg²⁺ and counted with a Cellometer™ Auto T4 cell counter (Nexcelom Bioscience, LLC). Approximately 2.0×10⁴ NIH3T3/hCD63, LNCAP, U87MG or NIH3T3 cells were seeded separately onto 96-well carbon electrode plates (Meso Scale Discovery, Cat #L15XB-6) and were then incubated for one hour at 37° C. Nonspecific binding sites were blocked with 2% BSA (w/v) in PBS with Ca²⁺/Mg²⁺ for one hour at room temperature (RT). Solutions containing anti-CD63 antibodies or isotype control antibodies at a range of concentrations (1.7 pM to 100nM) in 0.5% BSA (w/v) in PBS with Ca²⁺/Mg²⁺, as well as control buffer alone, were then added in duplicate to the plate-bound NIH3T3/hCD63, LNCAP, U87MG or NIH3T3 cells and incubated for one hour at RT. Plates were subsequently washed to remove unbound antibodies using an AquaMax2000 plate washer with a cell washing head (MDS Analytical Technologies). […] Plates were washed and then incubated with Read Buffer (MSD, Cat #R92TD-2) according to the manufacturer's instructions. Luminescent signals were measured using a SECTOR Imager (MSD). Luminescence intensity, measured in relative light units (RLU), was recorded to indicate the binding intensity of each antibody at the range of concentrations tested. The ratio of signal detected with 3.7 nM antibody binding to human CD63 expressing cells compared to the same concentration of antibody binding to negative cells was reported as an indication of specificity of CD63 binding.

The target of assay [3] is T1, human CD63. Put plainly: ECL cell binding, U87MG cells. Here is the method:
as §1, §2

Assay [4] has as its target T2, recombinant human CD63 extracellular loop 2 expressed with a C-terminal Myc-Myc-hexahistidine (human).
T2 construct: also called hCD63 EC loop 2-MMH; human CD63 EC loop2-MMH
Kind of assay: SPR (Biacore), captured mAb, 25°C. On the procedure:
(§3) Equilibrium dissociation constants (KD) for different CD63loop reagents binding to purified anti-CD63 monoclonal antibodies were determined using a real-time surface plasmon resonance based Biacore T200 biosensor or Biacore 2000 biosensor. All binding studies were performed in 10 mM HEPES, 150 mM NaCl, 3 mM EDTA, and 0.05% v/v Surfactant Tween-20, pH 7.4 (HBS-ET) running buffer at 25° C. and 37° C. The Biacore CM5 sensor chip surface was first derivatized by amine coupling with either a rabbit anti-mouse Fc specific polyclonal antibody (GE Healthcare, Cat #BR100838) or an anti-human Fab kit (GE Healthcare, Cat #28958325) to capture anti-CD63 monoclonal antibodies. Binding studies were performed on either recombinant human CD63 extracellular loop 2 expressed with a C-terminal Myc-Myc-hexahistidine (hCD63 EC loop 2-MMH; SEQ ID NO:80) or recombinant human CD63 extracellular loop 2 expressed with a C-terminal human Fc tag (hCD63 EC loop 2-hFc; SEQ ID NO:81). Different concentrations of hCD63 EC loop 2-MMH or hCD63 EC loop 2-hFc (either tested at 50 nM-12.5 nM in a 4-fold dilution or at 90 nM-0.37 nM in 3-fold serial dilutions) were first prepared in HBS-ET running buffer and were injected over the anti-mouse Fc captured anti-CD63 monoclonal antibody surface for 4 minutes at a flow rate of […] or 50 μL/minute, while the dissociation of monoclonal antibody bound CD63 reagent was monitored for 8 or 10 minutes in HBS-ET running buffer. The association rate (kₐ) and dissociation rate (kd) were determined by fitting the real-time binding sensorgrams to a 1:1 binding model with mass transport limitation using Scrubber 2.0c curve-fitting software. Binding dissociation equilibrium constant (KD) and dissociative half-life (t½) were calculated from the kinetic rates as: […]
(§4) Binding kinetics parameters for human CD63 EC loop 2 protein binding to different anti-CD63 monoclonal antibodies of the invention at 25° C. and 37° C. are shown in Tables 15 through 18.
In general terms: SPR reads the build-up and loss of mass on a sensor chip optically.

For assay [5], the target named is T3, recombinant human CD63 extracellular loop 2 expressed with a C-terminal human Fc tag (human).
T3 construct: also called hCD63 EC loop 2-hFc; human CD63 EC loop2-hFC
T3 sequence (chain, as listed by the source limits assumed): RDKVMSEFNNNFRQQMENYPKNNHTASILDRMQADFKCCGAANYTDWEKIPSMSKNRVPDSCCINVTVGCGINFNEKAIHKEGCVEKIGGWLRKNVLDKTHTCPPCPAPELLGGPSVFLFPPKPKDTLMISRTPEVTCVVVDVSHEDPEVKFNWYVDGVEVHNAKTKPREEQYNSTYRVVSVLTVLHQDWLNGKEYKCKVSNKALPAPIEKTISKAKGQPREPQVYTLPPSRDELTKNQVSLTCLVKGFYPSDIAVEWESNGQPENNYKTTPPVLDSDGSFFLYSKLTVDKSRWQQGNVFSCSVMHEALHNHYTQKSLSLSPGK
Kind of assay: SPR (Biacore), captured mAb, 25°C. Here is the method:
as §3, §4

Assay [6] has as its target T2, recombinant human CD63 extracellular …. Put plainly: SPR (Biacore), captured mAb, 37°C. Here is the method: as §3, §4
Assay [7] concerns the target T3, recombinant human CD63 extracellular …. Kind of assay: SPR (Biacore), captured mAb, 37°C. Here is the method: as §3, §4
In assay [8] the target is T1, human CD63. Kind of assay: ECL cell binding, NIH3T3/hCD63 cells. On the procedure:
as §1, §2

Assay [9] has as its target T1, human CD63. Kind of assay: flow cytometry, HEK293 cells endogenously expressing human CD63. Here is the method: Relative cell surface binding of the anti-CD63 antibodies to human CD63 expressing cells was accessed via flow cytometry using CD63 positive HEK293 cells (ATCC, Cat #CRL-1573), which endogenously express human CD63, and CD63 negative HEK293/CD63 knock out cells. For the assay, cells were plated in PBS without calcium and magnesium (VWR, Cat #45000-446), containing 2% FBS (Saradigm Cat #1500-500) (Staining Buffer) in 96 well V-bottom plates (Axygen Scientific, Cat #P-96-450-V-C-S). Cells were then incubated with anti-CD63 antibodies or isotype control antibodies at concentrations ranging from 100 nM to 1.7 pM for 30 minutes on ice. Wells containing no antibody were used as controls. HEK293/CD63KO cells were stained with only the highest concentration (100 nM) of the antibodies. […] Cells were then washed and fixed using a 50% solution of Cytofix (BD Biosciences, Cat #554655) diluted in PBS. Samples were run on the Intellicyte Hypercyt flow cytometer and results were analyzed in ForeCyt software (Intellicyte) to calculate the mean fluorescent intensity (MFI). Measured values were analyzed using a four parameter logistic equation over a 12-point response curve using GraphPad Prism and the resulting EC₅₀ values are reported (Table 12). The signal to noise ratio (S/N) was determined by calculating the ratio of the anti-CD63 antibodies or the control antibodies MFI to the wells containing no antibodies (Table 12).
For orientation: In flow cytometry, cells or beads pass a laser one at a time.

T2 sequence (chain, as listed by the source limits assumed): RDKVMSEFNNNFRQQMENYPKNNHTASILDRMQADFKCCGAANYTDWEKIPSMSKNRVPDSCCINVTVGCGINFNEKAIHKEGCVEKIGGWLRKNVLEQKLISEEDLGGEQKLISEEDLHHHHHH

B1: H2M12450N (antibody, V domains shown)
VH: QVQLQESGPKVVKPSETLSLTCTVSGGSISSYYWNWIRQSPGKGLEWIGYTKRGYTDYNPSLRSRVTISEDTSKNQFSLRISSVTAADTAVYYCAQMGWGSHAFDMWGQGTMVAVSS
VL: EIVLTQSPGTLSLSPGERATLSCRASQSVNSRYLAWYQQKPGQAPRLLIYGASSRATGIPDRCSGSGSGTDFTLTISRLEPEDFAVYYCQQYGSSPWTFGQGTKVEIK
notes: also called anti-CD63 antibody
For the molecule B1, the “T47D (nM) IC50, indirect cytotoxicity with anti-mFc Fab-MMAF” value in assay [1] came to 0.24 nM. In addition, the EC50 in assay [2] was 0.21 nM; in assay [8] it was 0.28 nM. In addition, the entries for the “ratio at 3.7 nM Ab of cell binding signal (RLU) to human CD63 cells relative to negative NIH3T3” value in assay [2], in assay [3] and in assay [8] were 20 fold, 175 fold and 230 fold, respectively. For the same molecule, in assay [4], the “50 nM or 90 nM Ag Bound (RU)” value was 65 RU. Moreover, the t½ is 41 min in assay [4], 248 min in [5], 57 min in assay [6] and 236 min in [7]. Also, the “50 nM Ag Bound (RU)” value in assay [5] came to 134 RU; in assay [6] it was 58 RU; in assay [7] it was 138 RU. Further, in assay [9], the “HEK293 (S/N), MFI of antibody over wells with no antibody” value (“HEK293 … over wells with no antibody” below) was found to be 26.7.

B2: H2M12395N (antibody, V domains shown)
VH: QVQLQESGPRLVKPSETLSLTCIVSGGSISNFYWNWIRQSPGKGLEWIGYFFYTGTIDYNPSLKSRVTISLDTSKNQFSLNLRLLTAADAAVYYCARMGLGANAFDIWGHGTMVTVSS
VL: EIVLTQSPGTLSLSPGERATLSCRASQHVSSNYLAWYQQKPGQAPRLLIYGGSSRATGIPDRFSGSGSGTDFTLTISRLEPADFAVFYCQQYGNSPWTFGQGTKVEMK
notes: as for B1
As to B2, the EC50 came to 0.35 nM in assay [2], 0.79 nM in [3] and 0.29 nM in [8]. The entries for the “ratio at 3.7 nM Ab of cell binding signal (RLU) to human CD63 cells relative to negative NIH3T3” value in [2], in [3] and in assay [8] were 18 fold, 171 fold and 256 fold, respectively. Besides, in assay [4], the “50 nM or 90 nM Ag Bound (RU)” value was found to be 42 RU. The t½ was 6 min in assay [4], 23 min in assay [5], 1 min in assay [6] and 6 min in [7]. Also, the results for the “50 nM Ag Bound (RU)” value in assay [5], in [6] and in assay [7] were 117 RU, 31 RU and 123 RU, respectively. The “HEK293 … over wells with no antibody” value in [9] came out at 21.

B3: H1M12451N (antibody, V domains shown)
VH: QVQLQESGPGLMKPSETLSLTCTVSGGSFSSYYWNWIRQSPGKGLEWIGYIRYSGDTNYKPSLKSRFTISIDTSKNLFSLRLKSVTAADTAVYYCARMGLGSDAFDIWGQGTMVTVSS
VL: EIVLTQSPGTLSLSPGERATLSCRASQSVNNNYLAWYQQKPGQAPRLLIYGVFNRATNIPDRFSGSGSGTDFTLTISRLEPEDFAVYYCQQYGSSPWTFGQGTKVEIK
notes: This one was detected or captured with anti-mouse Fc reagents; also called HIM12451; anti-CD63 antibody
As for B3, the 50% effective concentration (EC50) in assay [2] was 1.7 nM; in [3] it was 0.95 nM; in assay [8], 0.57 nM. In addition, the “ratio at 3.7 nM Ab of cell binding signal (RLU) to human CD63 cells relative to negative NIH3T3” value is 7 fold in assay [2], 52 fold in assay [3] and 91 fold in assay [8]. Moreover, in assay [4], the “50 nM or 90 nM Ag Bound (RU)” value is 52 RU. Further, the t½ in [4] turned out to be 27 min; in assay [5], 138 min; in assay [6], 6 min; in assay [7], 35 min. Further, the “50 nM Ag Bound (RU)” value in assay [5] is 107 RU; in assay [6], 44 RU; in assay [7], 118 RU. Besides, in assay [9], the “HEK293 … over wells with no antibody” value turned out to be 31.6.

B4: H4H12450N (antibody, V domains shown)
VH: QVQLQESGPKVVKPSETLSLTCTVSGGSISSYYWNWIRQSPGKGLEWIGYTKRGYTDYNPSLRSRVTISEDTSKNQFSLRISSVTAADTAVYYCAQMGWGSHAFDMWGQGTMVAVSS
VL: not shown
notes: as for B1
Take B4: in [4], the “50 nM or 90 nM Ag Bound (RU)” value was 24 RU, the Kd came to 0.53 nM, the off-rate (koff) amounted to 7.37e-05 s⁻¹ and the kon was 139000 M⁻¹ s⁻¹. The t½ in assay [4] came out at 157 min.

Source of the values: patent US20250171520A1 (Regeneron, published 2025).
